Data taken from patent US20130344592A1 (University of Pennsylvania, published 2013).
Positions of bridges follow the written chain, without caps; N, C: chain ends. No end group written: not given here.

Legend:
BSA = biological target: T1, BSA (UniProt P02769 25-607); test: monoclonal phage ELISA, BSA coated at 5 µg/mL
T1 construct: Only printed as 'BSA'
Procedure: (§1) Microtiter wells were coated overnight with either factor H or BSA at 5 μg/mL in PBS at 4° C., and saturated with 5% non-fat milk in PBST for 1 h. Completely separated individual phage plaques from the third round of screening were picked and amplified. Phage particles of each amplified individual phage plaque were added to both factor H- and BSA-coated wells in parallel and allowed to bind at RT for 1 h. After six washes with PBST, bound phages were detected with HRP-conjugated anti-M13 monoclonal antibody (GE Healthcare), using ABTS (Roche) for color development. Clones that bound to factor H but not to BSA were considered positive; single-stranded DNA from positive clones was prepared using an M13 kit (Qiagen, Valencia, Calif.) and sequenced by the DNA sequencing facility of the University of Pennsylvania.

fH19-20 [1] = biological target: T2, fH19-20 (human, UniProt P08603 1107-1231); test: monoclonal phage ELISA
T2 construct: domain: SCR19-20; also called factor H SCR19-20; C-terminal two SCR of factor H
T2 sequence (looked up): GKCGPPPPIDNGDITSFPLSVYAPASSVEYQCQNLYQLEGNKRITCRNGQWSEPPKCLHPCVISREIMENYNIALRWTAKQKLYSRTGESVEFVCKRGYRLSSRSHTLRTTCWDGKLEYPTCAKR
Procedure: as §1
(§2) To localize the binding sites on factor H of the positive clones, we further tested each clone by monoclonal phage ELISA for binding to factor H and its N- and C-terminal fragments, i.e. fH1-4 and fH19-20.

factor H SCR 1-4 (fH1-4) [2] = biological target: T3, factor H SCR 1-4 (fH1-4) (human, UniProt P08603 19-264); test: monoclonal phage ELISA
T3 construct: domain: SCR 1-4; also called N-terminal fragment of factor H; regulatory fH1-4 fragment
Procedure: as §1, §2

Human factor H [3] = biological target: T4, Human factor H (human, UniProt P08603 19-1231); test: monoclonal phage ELISA on coated factor H
T4 construct: mature; Plasma-derived protein; also called fH
Procedure: as §1

Human factor H [4] = biological target: T4, Human factor H; test: ELISA, biotinylated peptide on coated streptavidin, purified factor H detected by polyclonal antibody
Procedure: (§3) Two approaches were used to evaluate the binding of synthetic peptides to factor H. First, we used peptide-phage competition assays, in which serially diluted synthetic peptide was added to its parent phage at the step of phage binding to coated factor H. The rest of the steps were performed as described above for monoclonal phage ELISA. Second, ELISA experiments were used to evaluate the binding of factor H to the immobilized peptide. Microtiter plates were coated with streptavidin (New England Biolabs) at 10 μg/ml in PBS at 4° C. overnight, and saturated with 2% BSA in PBS. After washing, either the biotinylated 5C6 peptide or a biotinylated control peptide (linear compstatin; […]) was added at 10 μg/ml and allowed to bind at RT for 30 min. […] After 1 h of binding, the plates were washed, and bound factor H was detected with goat anti-human factor H polyclonal antibody (Quidel, San Diego, Calif.), followed by HRP-conjugated rabbit anti-goat IgG (Bio-Rad). […]
(§4) The direct binding between the peptide and factor H was initially evaluated in an ELISA experiment, in which the biotinylated 5C6 peptide and a biotinylated control peptide of similar size and charge (i.e., linear compstatin) were captured by coated streptavidin and the binding of purified factor H was detected by polyclonal antibodies.

factor H SCR 1-4 (fH1-4) [5] = biological target: T3, factor H SCR 1-4 (fH1-4); test: SPR, biotinylated peptide captured on streptavidin chip, fragment injected
Procedure: The binding of factor H with surface-bound 5C6 peptide was further characterized using surface plasmon resonance (SPR) on a ProteOn XPR36 instrument (Bio-Rad Inc., Hercules, Calif.) using PBST (10 mM sodium phosphate, 150 mM NaCl, 0.005% Tween 20) as running buffer. Streptavidin (50 μg/ml in 10 mM sodium acetate pH 5.0) was immobilized on a GLC sensor chip at 30° C. using amine coupling. The biotinylated 5C6 peptide and a biotinylated control peptide (linear compstatin; see above) were captured on separate streptavidin-coated channels to a density of ˜200 resonance units (RU). Purified factor H (Complement Technologies, Tyler, Tex.) or recombinant fragments fH1-4 and fH19-20 were injected at a concentration of 100 nM for 2 rain at a flow rate of 25 μl/min with a dissociation phase of 6 min. A single injection of 2 M NaCl for 30 s was used to regenerate the surface between injections. […]
The binding activity and specificity was further validated using SPR assays, by simultaneously injecting factor H or its fragments over biotinylated 5C6 peptide and the control peptide, which were captured on a streptavidin-coated sensor chip. […] While a significant SPR response could also be detected for the fH19-20 fragment, this interaction was not stable and the signal rapidly returned to baseline. […]

Human factor H [6] = biological target: T4, Human factor H; test: peptide-phage competition ELISA on coated factor H
Procedure: Two approaches were used to evaluate the binding of synthetic peptides to factor H. First, we used peptide-phage competition assays, in which serially diluted synthetic peptide was added to its parent phage at the step of phage binding to coated factor H. The rest of the steps were performed as described above for monoclonal phage ELISA. Second, ELISA experiments were used to evaluate the binding of factor H to the immobilized peptide. Microtiter plates were coated with streptavidin (New England Biolabs) at 10 μg/ml in PBS at 4° C. overnight, and saturated with 2% BSA in PBS. After washing, either the biotinylated 5C6 peptide or a biotinylated control peptide (linear compstatin; […]) was added at 10 μg/ml and allowed to bind at RT for 30 min. The wells were washed again, and factor H serially diluted in PBS, starting with 2.5 μg/ml, was added. After 1 h of binding, the plates were washed, and bound factor H was detected with goat anti-human factor H polyclonal antibody (Quidel, San Diego, Calif.), followed by HRP-conjugated rabbit anti-goat IgG (Bio-Rad). […]

Human factor H [7] = biological target: T4, Human factor H; test: ELISA, biotinylated peptide on coated streptavidin, factor H detected by polyclonal antibody
Procedure: as §3, §4

factor H SCR 1-4 (fH1-4) [8] = biological target: T3, factor H SCR 1-4 (fH1-4); test: monoclonal phage ELISA on coated fragment
Procedure: as §1, §2

fH19-20 [9] = biological target: T2, fH19-20; test: monoclonal phage ELISA on coated fragment
Procedure: as §1, §2

T3 sequence (P08603 19-264 limits assumed): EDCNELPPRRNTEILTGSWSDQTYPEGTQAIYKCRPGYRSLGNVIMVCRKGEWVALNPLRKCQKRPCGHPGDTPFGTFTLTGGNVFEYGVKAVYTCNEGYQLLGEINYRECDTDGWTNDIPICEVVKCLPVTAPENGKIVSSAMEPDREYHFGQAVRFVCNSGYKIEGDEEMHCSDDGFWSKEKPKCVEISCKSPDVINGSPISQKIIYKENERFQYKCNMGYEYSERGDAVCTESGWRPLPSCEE
T1 sequence (P02769 25-607 limits assumed): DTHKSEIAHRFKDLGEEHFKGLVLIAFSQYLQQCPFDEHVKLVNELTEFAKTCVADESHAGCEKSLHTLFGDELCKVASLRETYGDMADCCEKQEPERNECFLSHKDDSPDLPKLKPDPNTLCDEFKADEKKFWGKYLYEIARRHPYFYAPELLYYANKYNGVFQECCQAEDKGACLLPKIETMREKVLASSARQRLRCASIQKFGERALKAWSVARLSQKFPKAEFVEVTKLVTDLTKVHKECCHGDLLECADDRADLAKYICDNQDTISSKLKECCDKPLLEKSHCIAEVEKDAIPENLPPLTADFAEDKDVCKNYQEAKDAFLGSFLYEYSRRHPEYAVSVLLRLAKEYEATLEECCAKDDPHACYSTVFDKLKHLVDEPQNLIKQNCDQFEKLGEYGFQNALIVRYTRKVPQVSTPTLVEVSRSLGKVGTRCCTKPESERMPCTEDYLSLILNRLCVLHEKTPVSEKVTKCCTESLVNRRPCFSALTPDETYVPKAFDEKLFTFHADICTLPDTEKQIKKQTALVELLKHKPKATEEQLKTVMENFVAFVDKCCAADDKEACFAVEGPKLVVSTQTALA

B1: Phage clone 5D1 (class 3, library ANL5) (peptide)
peptide: ASPSWCSYSHWCRH
notes: not shown: not specified for the library
Q: Does B1 bind (BSA)?
A: Result: no binding

Q: Does B1 bind (fH19-20 [1])?
A: Result: no binding

Q: Does B1 bind (factor H SCR 1-4 (fH1-4) [2])?
A: Result: no binding

Q: Does B1 bind (Human factor H [3])?
A: Result: binds

B2: Biotinylated 5C6 peptide (peptide)
peptide: ASSSRCTYDHWCSH-{K(biotin)-NH2}
modifications: disulfide 6-12
notes: Captured on coated streptavidin (polystyrene wells or SPR chips); also called immobilized 5C6 peptide; not shown: C-terminal lysine carrying biotin
Q: Which results are given for B2?
A: binding result (Human factor H [4]): binds; binding result (factor H SCR 1-4 (fH1-4) [5]): no binding (tested: 100 nM)

B3: Synthetic 5C6 peptide (peptide)
peptide: ASSSRCTYDHWCSH-NH2
modifications: disulfide 6-12; N-terminus assumed
SMILES: C[C@H](N)C(=O)N[C@@H](CO)C(=O)N[C@@H](CO)C(=O)N[C@@H](CO)C(=O)N[C@@H](CCCNC(=N)N)C(=O)N[C@H]1CSSC[C@@H](C(=O)N[C@@H](CO)C(=O)N[C@@H](Cc2c[nH]cn2)C(N)=O)NC(=O)[C@H](Cc2c[nH]c3ccccc23)NC(=O)[C@H](Cc2c[nH]cn2)NC(=O)[C@H](CC(=O)O)NC(=O)[C@H](Cc2ccc(O)cc2)NC(=O)[C@H]([C@@H](C)O)NC1=O
notes: also called peptide 5C6
Q: Does B3 bind (Human factor H [6])?
A: Result: binds

B4: Biotinylated control peptide (linear compstatin, Cys-to-Ala double mutant) (peptide)
peptide: IAVVQDWGHHRAT
modifications: also: biotinylated, site not given here
notes: captured on coated streptavidin; also called LC; negative control peptide
Q: Does B4 bind (Human factor H [7])?
A: Result: no binding

B5: Phage clone 5E10 (class 3, library ANL5) (peptide)
peptide: ASSFKCDYSHWCLH
notes: as for B1
Q: Does B5 bind (BSA)?
A: Result: no binding

Q: Does B5 bind (fH19-20 [1])?
A: Result: no binding

Q: Does B5 bind (factor H SCR 1-4 (fH1-4) [2])?
A: Result: no binding

Q: Does B5 bind (Human factor H [3])?
A: Result: binds

B6: Phage clone 5G11 (class 3, library ANL5) (peptide)
peptide: ASSNVCSYSYWCAH
notes: as for B1
Q: What does the source list for B6?
A: binding result (BSA): no binding; binding result (fH19-20 [1]): no binding; binding result (factor H SCR 1-4 (fH1-4) [2]): no binding; binding result (Human factor H [3]): binds

B7: Phage clone 5-2C6 (class 2, library ANL5) (peptide)
peptide: ASSYDVGYSHDCRF
notes: as for B1
Q: Does B7 bind (BSA)?
A: Result: no binding

Q: Does B7 bind (Human factor H [3])?
A: Result: binds

Q: Does B7 bind (factor H SCR 1-4 (fH1-4) [8])?
A: Result: binds

B8: Phage clone 4A1 (class 1, library ANL4) (peptide)
peptide: ASSGMCFTKKTVLC
notes: as for B1
Q: Does B8 bind (BSA)?
A: Result: no binding

Q: Does B8 bind (Human factor H [3])?
A: Result: binds

Q: Does B8 bind (fH19-20 [9])?
A: Result: binds

B9: Phage clone 5-2B2 (class 3, library ANL5) (peptide)
peptide: ASSCMYSYWCTH
notes: as for B1
Q: Which results are given for B9?
A: binding result (BSA): no binding; binding result (fH19-20 [1]): no binding; binding result (factor H SCR 1-4 (fH1-4) [2]): no binding; binding result (Human factor H [3]): binds

B10: Phage clone 5C6 (class 3, library ANL5) (peptide)
peptide: ASSSRCTYDHWCSH
notes: also called parent phage of the 5C6 peptide; not shown: not specified for the library
Q: Does B10 bind (BSA)?
A: Result: no binding

Q: Does B10 bind (factor H SCR 1-4 (fH1-4) [2])?
A: Result: no binding

Q: Does B10 bind (Human factor H [3])?
A: Result: binds
